Test results published in the nanobody polyreactivity screen of Harvey et al. (2022).

test: yeast display, Sf9 membrane polyspecificity reagent, FACS + sequencing; frameworks hold sequencing errors
Procedure, shortened: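 In a synthetic yeast display library (Saccharomyces cerevisiae BJ5465), nanobody expression was induced with galactose for 36–48 hours. FACS gates were set low and high (top ~1%) using anti-HA fluorescence for expression and streptavidin fluorescence for binding of the Sf9 membrane reagent. Each polyreactivity label is drawn from the gate of origin.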

Sequence | polyreactivity (PSR sort gate)
QAQLQESGGSLVQAGGRLRLSCAASGYISVGSVMGWYRQAPSKERELVASIDQVANTNYADSVKGRFTISRDNAKNNVYLQMNSLKPEDTAVYYCATETTYILNYWGQVTQVTVSS | low polyreactivity
QAQLVESGGGLVQAGGSLRLICAASGSTFGVNAMGWYTQAPGKERELVAIITSTTYADSVKGRFTISRDNAKNTVYLQMNSLKPEDTAVYYCAKVQERVTKGRFYLLEYYWGQGTQVTVSS | low polyreactivity
QCQLVVSGGGLVQAGGSLRISCSASGSTFGVYSMGWYRQAPGKERELFATINSGGSTNYADSVKGRFTISRDNAKNTVYLQMNSLKPEDTAVYYCASGPFWQDFYVYEYDYWGQGTQVTVSS | low polyreactivity
QDHLVESGGCLVQAGGSLRLSCSASGRIFRYYAMGWYRHAPGKERELVAAIRNGGSTYYADSVKGRFTISRDNAKNTVYLQMNSLKPEDTAVYYCAAGYNYVSHRCGDWGQGSQVTVSS | high polyreactivity
QDHLVESGGGLVHAGGRLRLSCAASVRIFTAYAMGWYRQAPGTERELVPAISSGDSTYSADSVKGRFTISRDNAKNSVYLQMNSLKPVVTAVYSCATGVYPDFEYVSWGQGTQVTGSS | low polyreactivity
QDHLVESGGGLVQAGCSLRLTCAASGSIFIPNAMGWYRQAPGKERYLVAAIRSGGSSYYADSVKGRFTISRDNAKNTVYLQMNSLKPEDTAVYYCAADTYTYYYYLARYYYWGQGTQVTVSS | low polyreactivity
QDHLVESGGGLVQAGGSLRLSCAASGRIFFGYAMGWYRQATGKERELVATISYNDTSTYYADSVKGRFTISRDNAKNTVYLQMNCLKPEDTAVNYCSKSLGAPASDVYWGQGTQVTVSS | low polyreactivity
QDLLVESAGGLVQAGGSLRLSCAASGRNFPYKAMGWYRPAPGKERELVAAISSGGSTNYADSVKGRFTTSRDNAKNTVYLQMNSLKPEDTAVYYCAVGYSYYPSDEFDYWGQGTQVTVSS | low polyreactivity
QDPLVESGGGLVQAGGSLSLSCAASGRNIPVYAMGWYSQAPGKERELVATISYSGSSTYYADSVKGRFTNSRDNAKNTVYLEMYSLKPEDTAVYYWNADAFGPPGVQYYNWGQGTKVTVSS | low polyreactivity
QDQHGESGGGLVQAGGSLRLSCAASGFIFWSYTMGWYRQAPGKERELVAVITGSGSTYYADSVKGRFTISRDNAKNTVYFQMNSLKPEDTALYYCATEVHVTAWTFEYEYWGQGTQVTVSS | low polyreactivity
QDQHVESAGGLVQAAGSLRLSCAASGSTFWYYVMGWSRQAPGQVRELVAAISTRGDSTYYADSVKGRFTISRDNANNSVYLQMYSLKPEDTAVYYCAKSRQSSGRVRFDYWGQGTQVTVSS | low polyreactivity
QDQHVESAGGLVQAGGSLRLSCAATGFTFYYNPMRWYRQAPGKERELFASITRSGGPTYYADSVKGRFTISRDIAKHTVYLQMNSLKPEDTAVYYCARRYPGGYYWGHGTQVTVSS | high polyreactivity
QDQHVESGGGLDQAGGSLRLSCAASGRIFSYNTMGWYRQAPGQERELVAASSSSGGSTYYADSVKGRFTISRDNAKNTVYLQMNSLKPEDTAVYYCNAVGRFSTRREYWGQGTQVTVSS | high polyreactivity
QDQHVESGGGLVHAGGSLRLSCAASGRIFKVYAMGWYRQPPGKERQLVASIRWNTGSTYYADSVKGRFTISRDNAKNTVYLQMNSLKPEDTAVYYCNSRGYYQGRYGYWGQGTQVTVSS | high polyreactivity
QDQHVESGGGLVQAGCSLRLSCAASGRTFTYNAMGWYRQAPGKERELVASISSRGGSTYYADSVKGRFTISRDNAKNTVYLQMNSLKPEDTAVYYCAARWRYQLSGSRLSYGKYDYWGQGTQVTVSS | high polyreactivity
QDQHVESGGGLVQAGGSLRLSCAASGHTFRLYTMGWYRQAPGKEREFVAAIRRRTGSTYYADSVKGRFTISRDNAQNTVYLQRNSMKAEVTAVYYCNAVGDARYNYRGQGTQVTVSS | high polyreactivity
QDQHVESGGGLVQAGGSLRLSCAASGLIFYYNMGWNRQAPRKERELVAAISSSGGSTSYADSVKGRFTISRDNAKNTVYLQMNSLKPEDTAVYYCAADSYPAYLGFVGFDYWGQGTQVTVSS | low polyreactivity
QDQHVESGGGLVQAGGSLRLSCAASGRTFGNYAMGWYRQAPGKERELVADITRRGGSTSYADSVKGRFTISRDNAKNTVYLQMNSLKPEDTAVYYCNKAADGSSHYDYWGQGTQVTVSS | low polyreactivity
QDQHVESGGGLVQAGGSLRLSCAASGRTFVFYAMGWYRQAPGKERELLAVIRVIGGSTKYADSVKGRFTISRDNAKNTVYLQMNSLKPVDTAVYYCAADGVVVVAAYMYYWGQGTQVTVSS | low polyreactivity
QDQHVESGGGLVQAGGSLRLSCAASGRTFYRNAMGWYRQAPGKEREFVAVISVSCGSTYYADSVKGRFTISRDNAKNTVYLQMNSLKPEDTAVYYCAKRGPVRKTAYDYCGQGTQVTVSS | low polyreactivity
QDQHVESGGGLVQAGGSLRLSCAASGSTFYIYARGWYRQAPGKERELVARISGSGGSTYYADSVKGRFTISRDNAKNTVYLQMNSLKPEDTAVYYCAAEDIYKYYQYYAFPYYRYDYWGQGTQVTVSS | low polyreactivity
QDQHVESGGGLVQAGGSLRLSCAASGSTYRDNAMGWSRQAPGKERELVAAISVSGASTYYADSVKGRFTISRDNAKNTVYLQMNSLKPEDTAVYDCAKSLYQALSLSFFIFGYWGQGTQVTVSS | low polyreactivity

Sequence | polyreactivity (PSR sort gate)
QDQHVESGGGLVQAGGSLRLSCAASGYILRCNTMGWSRKAPGKERELVAAISSRGGITNYADSVKGRFTFSRDNAKNTVYLQMNSRKPEDTAVYYCATYWQYRYDYWGQGTQVTVSS | low polyreactivity
QDQHVESGGGLVQAGGSLRLSCSATGRIFTSYVMGWYRQPQGKERQLVAAITRSGGSTYYADSVKVRFTISRDTAKNTVYLQMKSLIPVDTAVYYCNALTRLQIGGEGGGYWGKGTQVTVSS | high polyreactivity
QDQHVESGGGLVQAGGSLRLSSAASGFTFKGNAMGWYRQGPGKVMELVATITQSAGSTYYADSVKGRFSISRDNAKNTVYLQMNSLKPEDTGVYFCNADPITLYYYSWYNYWGQGTQVTVSS | low polyreactivity
QDQIVESGGGLVQAGGSLRLSCAASGIIFWSYAMAWYRQAPGKERELVAAINTSGDSSYYADSVKGRFTISRDNAKNTVYLQMNSLKAEDTAVYYCAAKSSTRGDYWGQGTQVTVSS | low polyreactivity
QDQIVESGGGYDQAGGSLRLTCAASGRIFRGNDMGSYRQAPGKERELVASISGTGGRTYYADSVKGRFTISRDNAKNTVYLQMNSLKPEDPAVYYCAVRTSLWGYYYWGHGTQVTVSS | high polyreactivity
QDQIVESGVGLVQAGGTLRLSCAASGFTFRRYVMGWYRQAPGKERELVAAISQSGGSTYYADSVKGRFTISRDNAKNTVYLQMKSLKPEDTAVYYCAATGAFWYPYDYWGQGTQVTVSS | high polyreactivity
QDQLEESGGGLVQAGGSLRLSCAASGFTFGNNAMGWYRQAPGKERELDAAISKRGSSTYYADSVKGRFTISRDNAKNTVYLLMNSLKPDDTAVYYCAAQTPYYLLYDTGDYLGQGTQVTVSS | high polyreactivity
QDQLEESGGGLVQAGGSLRLSCAASVRTFRDNAMGWSRQATGKQRQLVAAITQSGASTFYADSVKGRFTISRDNAKNSVYLQMNSLKADDTAVYYCAALRRQGRYVYGYWGQGTQVTVSS | high polyreactivity
QDQLEESGGGLVQAGGSLRLSFAASGSTFYGYARGWYRPAPGKERELVAAISVNGGSTYYADSVKGRFTISRDNAKNTVYLQMNSLKPDETAVYYCAAGSGWRFDYWGQGTQVTVSS | low polyreactivity
QDQLGESGGGIVQAGGSLRLSCASSGINFLDKAMGWYRPAQGKETELVAAYADSVKGRFTISRDNAKNTVYLQMNSLSAEDTAVYYCNAGWIRYYGFSIVSYDYWGQGTQVTVSS | low polyreactivity
QDQLGESGGGLVQAGGSLRLSCAASGRTFNGYAMGWYRQAPGKVREFVAAITSNGARTYYADSVKGRFTISRDNAMNSVYLQMNSLKPEDTAVFYCAKRFARRSQRYDYWGQGTQVTVSS | high polyreactivity
QDQLLESGGGLVQAGGSLRLSCAASGFTFYRYAMGWYRQAPGKERELVASISKSCGSTYYADSVKGRFTISRDNAKNTVYLQMNSLKPEDTAVYYCAADVDYPYGYWGQGTQVTVSS | low polyreactivity
QDQLQESGGGLEQARGSLRLSCAASGYISTFSSEMGWYRQAPGKELELVASIAPCCTTSYADSVKGRCTISRDNAKNTVYLQMNSLKPEDTSVYYCAVDYTVPASFGFRGQGTQVTVSS | high polyreactivity
QDQLVDSGGGLLQAGGSLRLSCAASGFTFWQYAMGWYRQAPGKERELVAAISGSGSSTYYADSEKGRFTISRDNAKNTVYLQMISLQPEYTAVYYCATAISRYGRFYYWGQGTQVTLSS | high polyreactivity
QDQLVDSGGGLVQAGGSLRLSCAASGRIFRGNAMGWYRQAPGKERELVAAISNSGGRTYYADSVKGRFTISRDNAKNTVYLQMNSLKPDDTAVSYCAAKAPVIFWDTRIVPGYSGYYYWGQGTQVTVSS | high polyreactivity
QDQLVDSGGGLVQAGGSLRLSCAASGRTFSPNTMGWYRQAPGKEREFVAAITASGDSTYYADSVKGRFTISRDNEKNTVYLQMNSLKPEDTAVYYCATDSNWYWGFNYWGQGTQVTVSS | low polyreactivity
QDQLVDSGGGLVQAGGSLRLSCAATGRSFRRYFMGWYIPAPGKERELVAAISYSGATTYYADSVKGRFTISRDYAKNNVYLQMNSLKKEDTAVYYFAATAPGDRYYWGQGTQVTVSS | high polyreactivity
QDQLVDSGGGLVQAGGSLRLSCGASGSTFRKYAMGWYRQAPGQEREFVAAITWSTGTTYYADSVKGRFTISRDNAKNTVYLQMNSLKREDTAVYYCAADSQPPHDLYESIEHESWGLGTQVTVSS | low polyreactivity
QDQLVEAGGGLVQAGGSLRLSCAASGFIFSRNAMGWYRQAPGKEGELVAAISSTGGITYYADSVKGRFSISRDNAKNTVYLQLTSLKPEDTAVYFCAAGFYGYARHTWYNYWGQGTQVTVSS | high polyreactivity
QDQLVESAGGLVQAGGSLRLSCAASGFTFINNDMGWYRQAPGKERELVAAISDSDGTTYYADSVKGRFTISLDHAKNTVYLQMNSLKPEDTAGYYCAADVVPTWEDEYWRQGTQVTVSS | low polyreactivity
QDQLVESAGGLVQAGGSLRLSCAASGSTSQSNAMGWYREAPGKDRELVAAISWSGTSTYYADSVKGRFTISRDNAKNTVYLQMNRLKPEDTAGYYCAADYIFEYDYWGQGTQVTVSS | low polyreactivity
